This note sets out measurements from article PMC8027116 (2021).

Assay in all cases: activation reporter or marker
Assay [1] has as its target T1, preproinsulin peptide on HLA-DQA1*05:01 / HLA-DQB1*02:01 (human).
T1 peptide: YLVCGERGFFYTPKT

The target of assay [2] is T2, preproinsulin peptide on HLA-DQA1*05:01 / HLA-DQB1*02:02 (human).
T2 peptide: YLVCGERGFFYTPKT

Assay [3] addresses T3, preproinsulin peptide on HLA-DRA*01:01 / HLA-DRB1*03:01 (human).
T3 peptide: QKRGIVEQCCTSICS

Assay [4] concerns the target T4, preproinsulin peptide on HLA-DRA*01:01 / HLA-DRB1*03:01 (human).
T4 peptide: AEDLQVGQVELGGGP

In assay [5] the target is T5, preproinsulin peptide on HLA-DRA*01:01 / HLA-DRB1*09:01 (human).
T5 peptide: AEDLQVGQVELGGGP

In assay [6] the target is T6, insulin B-chain peptide on HLA-DRA*01:01 / HLA-DRB1*04:01 (human).
T6 peptide: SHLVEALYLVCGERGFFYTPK

B1: 56.B1 (TCR)
alpha TRAV13-1 TRAJ40 CDR3: CAVLSPSGTYKYIF
beta TRBV7-9 TRBJ1-4 CDR3: CASSLMGNPHEKLFF
In the case of B1, the binding result in assay [1] and in assay [2] was “recognises” each time.

B2: 95.A9-1 (TCR)
alpha TRAV9-2 TRAJ18 CDR3: CALRTDRGSTLGRLYF
beta TRBV11-2 TRBJ1-6 CDR3: CASSLQSSYNSPLHF
Turning to B2, the binding result in assay [3] is “no recognition”.

B3: 55.C10 (TCR)
alpha TRAV26-1 TRAJ26 CDR3: CIVRSHGQNFVF
beta TRBV20-1 TRBJ2-7 CDR3: CSARPGTRNYEQYF
For the molecule B3, the binding result in assay [4] and in assay [5] was “no recognition” in each case.

B4: 23.G8 (TCR)
alpha TRAV39 TRAJ56 CDR3: CAWRTGANSKLTF
beta TRBV24-1 TRBJ2-2 CDR3: CATGLAANTGELFF
For B4, in assay [6], the binding result is reported as “no recognition”.
